Source: the supplement of paper PMC9112550, “Optimization of the antimicrobial peptide Bac7 by deep mutational scanning” (BMC Biology, 2022)

Each sequence was assayed on Escherichia coli TOP10 (assay: shrunken log2 fold change of peptide-encoding DNA abundance (4.5 h post-induction vs induction); higher = less antimicrobial activity (less host growth inhibition)). Conditions: time post-induction: 4.5 h; library: site-saturation at positions 5, 18, 19, 20.
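Note: peptides expressed intracellularly from a pBAD plasmid library in pooled LB shake-flask culture, induced with 0.3% L-arabinose, DNA abundance read by NGS, three biological replicates, DESeq2 with apeglm shrinkage.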

| Sequence | shrunken log2 fold change |
| --- | --- |
| RRIRVRPPRLPRPRPRPRRLPRP | 0.135 |
| RRIRNRPPRLPRPRPRPEYNPRP | -0.678 |
| RRIRDRPPRLPRPRPRPKWAPRP | 0.0411 |
| RRIRMRPPRLPRPRPRPKNTPRP | 0.575 |
| RRIRHRPPRLPRPRPRPTIIPRP | -0.494 |
| RRIRDRPPRLPRPRPRPDSEPRP | -0.0121 |
| RRIRYRPPRLPRPRPRPALFPRP | -0.0533 |
| RRIRSRPPRLPRPRPRPFDPPRP | -0.102 |
| RRIRKRPPRLPRPRPRPAECPRP | 0.33 |
| RRIRHRPPRLPRPRPRPFRNPRP | -0.221 |
| RRIRDRPPRLPRPRPRPSFNPRP | -0.68 |
| RRIRNRPPRLPRPRPRPCWAPRP | -0.057 |
| RRIRCRPPRLPRPRPRPPAVPRP | 0.645 |
| RRIRNRPPRLPRPRPRPEAMPRP | 0.616 |
| RRIRLRPPRLPRPRPRPMDKPRP | -0.296 |
| RRIRCRPPRLPRPRPRPWKGPRP | -0.0267 |
| RRIRWRPPRLPRPRPRPFVMPRP | -1.01 |
| RRIRHRPPRLPRPRPRPRKTPRP | 0.00946 |
| RRIRPRPPRLPRPRPRPQGTPRP | 0.306 |
| RRIRARPPRLPRPRPRPYTGPRP | -0.645 |
| RRIRMRPPRLPRPRPRPKKKPRP | 1.61 |
| RRIRIRPPRLPRPRPRPMCVPRP | -0.209 |
| RRIRNRPPRLPRPRPRPLPWPRP | 0.00924 |
| RRIRIRPPRLPRPRPRPRDEPRP | 0.27 |
| RRIRKRPPRLPRPRPRPRQLPRP | 0.8 |

| Sequence | shrunken log2 fold change |
| --- | --- |
| RRIRCRPPRLPRPRPRPWMAPRP | -0.333 |
| RRIRVRPPRLPRPRPRPEIDPRP | 0.135 |
| RRIRWRPPRLPRPRPRPVFWPRP | 0.386 |
| RRIRLRPPRLPRPRPRPDNYPRP | 0.0733 |
| RRIRDRPPRLPRPRPRPMFLPRP | 0.0737 |
| RRIRPRPPRLPRPRPRPDWEPRP | 0.19 |
| RRIRNRPPRLPRPRPRPVYFPRP | -0.301 |
| RRIRVRPPRLPRPRPRPGQAPRP | -0.0106 |
| RRIRDRPPRLPRPRPRPHPCPRP | 0.0731 |
| RRIRNRPPRLPRPRPRPCMPPRP | -0.549 |
| RRIRCRPPRLPRPRPRPIGMPRP | -0.121 |
| RRIRLRPPRLPRPRPRPLPHPRP | -0.309 |
| RRIRWRPPRLPRPRPRPLKWPRP | 0.488 |
| RRIRHRPPRLPRPRPRPHDLPRP | 0.0509 |
| RRIRDRPPRLPRPRPRPRNMPRP | -0.602 |
| RRIRNRPPRLPRPRPRPLASPRP | -0.196 |
| RRIRQRPPRLPRPRPRPVTRPRP | 0.0193 |
| RRIRARPPRLPRPRPRPVPCPRP | 0.341 |
| RRIRMRPPRLPRPRPRPEAEPRP | 2.18 |
| RRIRVRPPRLPRPRPRPLEQPRP | -0.0372 |
| RRIRYRPPRLPRPRPRPCYIPRP | -0.189 |
| RRIRQRPPRLPRPRPRPGYMPRP | -0.131 |
| RRIRLRPPRLPRPRPRPRHKPRP | 0.258 |
| RRIRPRPPRLPRPRPRPCVWPRP | 0.0579 |
| RRIRERPPRLPRPRPRPRIIPRP | 0.0824 |

| Sequence | shrunken log2 fold change |
| --- | --- |
| RRIRMRPPRLPRPRPRPSFQPRP | -0.283 |
| RRIRHRPPRLPRPRPRPLWIPRP | -0.505 |
| RRIRQRPPRLPRPRPRPMIIPRP | 0.0698 |
| RRIRSRPPRLPRPRPRPPFVPRP | 0.148 |
| RRIRPRPPRLPRPRPRPDAAPRP | 0.721 |
| RRIRFRPPRLPRPRPRPEMDPRP | -0.00136 |
| RRIRVRPPRLPRPRPRPFRNPRP | -0.0529 |
| RRIRCRPPRLPRPRPRPEGPPRP | 0.261 |
| RRIRARPPRLPRPRPRPMSMPRP | 0.0853 |
| RRIRDRPPRLPRPRPRPTHFPRP | -0.0613 |
| RRIRKRPPRLPRPRPRPTYFPRP | -0.817 |
| RRIRGRPPRLPRPRPRPRTGPRP | 0.617 |
| RRIRFRPPRLPRPRPRPMNIPRP | -0.192 |
| RRIRYRPPRLPRPRPRPIDIPRP | -0.0256 |
| RRIRPRPPRLPRPRPRPWRVPRP | 0.244 |
| RRIRERPPRLPRPRPRPHTCPRP | -0.0792 |
| RRIRMRPPRLPRPRPRPFRNPRP | -0.0431 |
| RRIRMRPPRLPRPRPRPYFTPRP | -0.362 |
| RRIRDRPPRLPRPRPRPYKNPRP | -0.454 |
| RRIRDRPPRLPRPRPRPFLKPRP | -0.212 |
| RRIRSRPPRLPRPRPRPAGCPRP | 0.459 |
| RRIRCRPPRLPRPRPRPHHQPRP | -0.278 |
| RRIRERPPRLPRPRPRPLRFPRP | 0.493 |
| RRIRARPPRLPRPRPRPICSPRP | 0.251 |
| RRIRHRPPRLPRPRPRPDPQPRP | 0.108 |

| Sequence | shrunken log2 fold change |
| --- | --- |
| RRIRRRPPRLPRPRPRPEFRPRP | 0.179 |
| RRIRGRPPRLPRPRPRPCSHPRP | -0.112 |
| RRIRSRPPRLPRPRPRPYQIPRP | -0.106 |
| RRIRWRPPRLPRPRPRPYNQPRP | -0.807 |
| RRIRPRPPRLPRPRPRPFNCPRP | -0.537 |
| RRIRRRPPRLPRPRPRPLYSPRP | -0.0185 |
| RRIRRRPPRLPRPRPRPGMSPRP | 0.226 |
| RRIRFRPPRLPRPRPRPPAGPRP | 0.727 |
| RRIRCRPPRLPRPRPRPPKNPRP | 0.5 |
| RRIRSRPPRLPRPRPRPFIHPRP | -0.154 |
| RRIRTRPPRLPRPRPRPWPPPRP | 0.154 |
| RRIRDRPPRLPRPRPRPWRAPRP | 0.132 |
| RRIRTRPPRLPRPRPRPELPPRP | 0.499 |
| RRIRWRPPRLPRPRPRPICIPRP | -0.191 |
| RRIRFRPPRLPRPRPRPWWWPRP | 0.0474 |
| RRIRHRPPRLPRPRPRPYPEPRP | -0.267 |
| RRIRRRPPRLPRPRPRPNGPPRP | 0.384 |
| RRIRFRPPRLPRPRPRPLLDPRP | -0.0563 |
| RRIRQRPPRLPRPRPRPAKEPRP | -0.0803 |
| RRIRYRPPRLPRPRPRPHMPPRP | -0.38 |
| RRIRERPPRLPRPRPRPWHMPRP | -0.0037 |
| RRIRVRPPRLPRPRPRPKIKPRP | -0.303 |
| RRIRHRPPRLPRPRPRPVTWPRP | -0.268 |
| RRIRCRPPRLPRPRPRPFGGPRP | 0.0285 |
| RRIRWRPPRLPRPRPRPFDEPRP | 0.129 |

| Sequence | shrunken log2 fold change |
| --- | --- |
| RRIRPRPPRLPRPRPRPFWQPRP | 0.00477 |
| RRIRFRPPRLPRPRPRPYQIPRP | -0.471 |
| RRIRIRPPRLPRPRPRPPFIPRP | -0.755 |
| RRIRFRPPRLPRPRPRPMIFPRP | -0.364 |
| RRIRFRPPRLPRPRPRPPDGPRP | 0.209 |
| RRIRERPPRLPRPRPRPMCSPRP | -0.00794 |
| RRIRSRPPRLPRPRPRPEPVPRP | 1.44 |
| RRIRWRPPRLPRPRPRPAYSPRP | -0.153 |
| RRIRLRPPRLPRPRPRPFHDPRP | -0.713 |
| RRIRYRPPRLPRPRPRPHIFPRP | -0.255 |
| RRIRERPPRLPRPRPRPINEPRP | -0.281 |
| RRIRNRPPRLPRPRPRPYTRPRP | -0.124 |
| RRIRCRPPRLPRPRPRPDVMPRP | -0.101 |
| RRIRVRPPRLPRPRPRPRFRPRP | 0.193 |
| RRIRWRPPRLPRPRPRPMQAPRP | 1.83 |
| RRIRHRPPRLPRPRPRPFYVPRP | 2.94 |
| RRIRTRPPRLPRPRPRPKSHPRP | -0.365 |
| RRIRCRPPRLPRPRPRPWKVPRP | 0.101 |
| RRIRDRPPRLPRPRPRPTYKPRP | -0.529 |
| RRIRCRPPRLPRPRPRPFEEPRP | -0.0957 |
| RRIRNRPPRLPRPRPRPSPMPRP | -0.0245 |
| RRIRIRPPRLPRPRPRPFEGPRP | -0.221 |
| RRIRTRPPRLPRPRPRPKRMPRP | -0.157 |
| RRIRTRPPRLPRPRPRPMCTPRP | -0.0211 |
| RRIRYRPPRLPRPRPRPNLCPRP | -1.35 |

| Sequence | shrunken log2 fold change |
| --- | --- |
| RRIRMRPPRLPRPRPRPPECPRP | 0.369 |
| RRIRPRPPRLPRPRPRPYVAPRP | -0.465 |
| RRIRRRPPRLPRPRPRPLPHPRP | 0.485 |
| RRIRIRPPRLPRPRPRPIQAPRP | -0.209 |
| RRIRDRPPRLPRPRPRPTEWPRP | 0.531 |
| RRIRCRPPRLPRPRPRPGTLPRP | -0.237 |
| RRIRLRPPRLPRPRPRPTDDPRP | -0.0495 |
| RRIRRRPPRLPRPRPRPCTWPRP | -0.0877 |
| RRIRYRPPRLPRPRPRPGADPRP | -0.177 |
| RRIRNRPPRLPRPRPRPRGCPRP | 0.366 |
| RRIRRRPPRLPRPRPRPKWMPRP | 0.338 |
| RRIRGRPPRLPRPRPRPQFTPRP | 0.104 |
| RRIRMRPPRLPRPRPRPPGRPRP | 0.849 |
| RRIRDRPPRLPRPRPRPVLPPRP | 0.0231 |
| RRIRWRPPRLPRPRPRPWLNPRP | -0.227 |
| RRIRRRPPRLPRPRPRPMDVPRP | 0.0427 |
| RRIRIRPPRLPRPRPRPSLIPRP | -0.604 |
| RRIRMRPPRLPRPRPRPMSHPRP | -0.121 |
| RRIRRRPPRLPRPRPRPQPRPRP | 0.5 |
| RRIRRRPPRLPRPRPRPHPLPRP | 0.211 |
| RRIRDRPPRLPRPRPRPNHFPRP | -0.189 |
| RRIRFRPPRLPRPRPRPWIPPRP | -0.432 |
| RRIRNRPPRLPRPRPRPMYFPRP | -0.0737 |
| RRIRIRPPRLPRPRPRPWKFPRP | -0.158 |
| RRIRGRPPRLPRPRPRPINFPRP | -0.189 |
